Laboratory results: the supplement of paper PMC12067230
± gives the uncertainty stated by the source.

B1: N-13-H; numbered along this chain (parent)
chain: EASNCFAIRHFENKFAVETLICFNLFLNSQEKHY

Variants of: B1
Experiment: amyloid nucleation score relative to WT ADan (yeast Sup35 reporter selection) (log enrichment difference); higher = more amyloid nucleation
Experimental: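 Deep mutational scan of the ADan peptide fused to the Sup35 nucleation domain (SupN) in S. cerevisiae [psi-pin-], covering all single amino-acid substitutions and stop truncations (truncations = sequence up to the stop). After 24 h Cu2+ induction, cells were selected on -ADE-URA plates for 7 d at 30 °C. The nucleation score is log enrichment (output/input, deep sequencing) minus that of WT ADan, as the error-weighted mean of 3 biological replicates (DiMSum).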

Question: Which amyloid nucleation score does the source give for EASNCFAIRHFEHKFAVETLICFNLFLNSQEKHY here?
Answer: -1.45 ± 0.23

Question: Which amyloid nucleation score does the source give for EASNCFAIRHFENKFAVETLIWFNLFLNSQEKHY here?
Answer: -2.89 ± 0.21

Question: For EASNCFAIRHFENKFAVETLIIFNLFLNSQEKHY, which amyloid nucleation score is on record?
Answer: -0.375 ± 0.17

Question: With EASNCFAIRHFENKFAVETLIVFNLFLNSQEKHY as the variant, how does the amyloid nucleation score read?
Answer: 0.222 ± 0.1

Question: Which amyloid nucleation score does the source give for EASNCFAIRHFENYFAVETLICFNLFLNSQEKHY here?
Answer: 0.185 ± 0.11

Question: With EASNCFAIRHFENKFAVETLICHNLFLNSQEKHY as the variant, how does the amyloid nucleation score read?
Answer: 0.305 ± 0.19

Question: Which amyloid nucleation score does the source give for EASNCFAIRHFENKFAVETLICPNLFLNSQEKHY here?
Answer: -1.99 ± 0.31

Question: With EASNCFAIRHFENKWAVETLICFNLFLNSQEKHY as the variant, how does the amyloid nucleation score read?
Answer: -1.15 ± 0.19

Question: With EASNCFAIRHFENKYAVETLICFNLFLNSQEKHY as the variant, how does the amyloid nucleation score read?
Answer: 0.0276 ± 0.12

Question: For EASNCFAIRHFENKFAVETLICFNLFLNSQESHY, which amyloid nucleation score is on record?
Answer: 0.198 ± 0.091

Question: With EASNCFAIRHFENKFAVETLICFNLFLNSQEFHY as the variant, how does the amyloid nucleation score read?
Answer: -0.726 ± 0.15

Question: With EASNCFAIRHFRNKFAVETLICFNLFLNSQEKHY as the variant, how does the amyloid nucleation score read?
Answer: -0.892 ± 0.097

Question: Which amyloid nucleation score does the source give for EASNCFAIRHFKNKFAVETLICFNLFLNSQEKHY here?
Answer: -0.108 ± 0.15

Question: Which amyloid nucleation score does the source give for EASNCFAIQHFENKFAVETLICFNLFLNSQEKHY here?
Answer: 0.474 ± 0.17

Question: Which amyloid nucleation score does the source give for EASNCFAIAHFENKFAVETLICFNLFLNSQEKHY here?
Answer: 0.274 ± 0.14

Question: For EASNCFAINHFENKFAVETLICFNLFLNSQEKHY, which amyloid nucleation score is on record?
Answer: 0.528 ± 0.27

Question: With EASNCFAIKHFENKFAVETLICFNLFLNSQEKHY as the variant, how does the amyloid nucleation score read?
Answer: -0.189 ± 0.19

Question: For EASNCFAIRHFENKFAVGTLICFNLFLNSQEKHY, which amyloid nucleation score is on record?
Answer: 0.127 ± 0.1

Question: Which amyloid nucleation score does the source give for EASNCFAIRHFENKFAVCTLICFNLFLNSQEKHY here?
Answer: -1.06 ± 0.17

Question: For EASNCFAIRHFENKFAVVTLICFNLFLNSQEKHY, which amyloid nucleation score is on record?
Answer: -2.72 ± 0.29

Question: With EASNCFAIRHFENKFAVWTLICFNLFLNSQEKHY as the variant, how does the amyloid nucleation score read?
Answer: -4.12 ± 0.54

Question: Which amyloid nucleation score does the source give for EASNCFAIRHFENKFAVETLICFNLFLNSQEKHC here?
Answer: 0.316 ± 0.14

Question: Which amyloid nucleation score does the source give for EASNCFAIRHFENKFAVETLICFNLFLNSQEKHQ here?
Answer: 0.196 ± 0.2

Question: Which amyloid nucleation score does the source give for EASNCFAIRHFENKFAVETLICFNLFLNSQEKHK here?
Answer: 0.234 ± 0.17

Question: With EASNCFAIRHFENKFAVEWLICFNLFLNSQEKHY as the variant, how does the amyloid nucleation score read?
Answer: -2.17 ± 0.28

Question: For EASNCFAIRHFENKFAVEVLICFNLFLNSQEKHY, which amyloid nucleation score is on record?
Answer: -3.41 ± 0.34

Question: For EASNCFAIRHFENKFAVETLICFNLFLNSGEKHY, which amyloid nucleation score is on record?
Answer: -0.112 ± 0.071

Question: For EASNCFAIRHFENKFAVETLICFNLFLNSREKHY, which amyloid nucleation score is on record?
Answer: -0.927 ± 0.079

Question: For EASNCFAIRHFENKFAVETLICFNLFLNSFEKHY, which amyloid nucleation score is on record?
Answer: -0.531 ± 0.12

Question: With EASNCFAIRHFENKFAFETLICFNLFLNSQEKHY as the variant, how does the amyloid nucleation score read?
Answer: -0.0103 ± 0.15

Question: Which amyloid nucleation score does the source give for EASNCFAIRHFENKFALETLICFNLFLNSQEKHY here?
Answer: -0.705 ± 0.1

Question: Which amyloid nucleation score does the source give for EASNCFAIRHFENKFAEETLICFNLFLNSQEKHY here?
Answer: -1.74 ± 0.18

Question: With EASNCFAIRHSENKFAVETLICFNLFLNSQEKHY as the variant, how does the amyloid nucleation score read?
Answer: -0.135 ± 0.099

Question: Which amyloid nucleation score does the source give for EASNCFAIRHLENKFAVETLICFNLFLNSQEKHY here?
Answer: 0.0755 ± 0.086

Question: Which amyloid nucleation score does the source give for EASNCFAIRHQENKFAVETLICFNLFLNSQEKHY here?
Answer: 0.646 ± 0.18

Question: Which amyloid nucleation score does the source give for EASNCFAIRHKENKFAVETLICFNLFLNSQEKHY here?
Answer: 0.435 ± 0.17

Question: With EASNCFAIRHPENKFAVETLICFNLFLNSQEKHY as the variant, how does the amyloid nucleation score read?
Answer: 0.683 ± 0.19

Question: Which amyloid nucleation score does the source give for EASNCFAQRHFENKFAVETLICFNLFLNSQEKHY here?
Answer: 0.519 ± 0.23

Question: For EASNCFAARHFENKFAVETLICFNLFLNSQEKHY, which amyloid nucleation score is on record?
Answer: 0.49 ± 0.13

Question: With EASNCFAIRHFENKFAVETLCCFNLFLNSQEKHY as the variant, how does the amyloid nucleation score read?
Answer: 0.511 ± 0.13

Question: For EASNCFAIRHFENKFAVETLVCFNLFLNSQEKHY, which amyloid nucleation score is on record?
Answer: -0.0338 ± 0.098

Question: With EASNCFAIRHFENKFAVETLTCFNLFLNSQEKHY as the variant, how does the amyloid nucleation score read?
Answer: 0.7 ± 0.12

Question: With EASNCFAIRHFENKFAVETLICFNLFLNSQEKMY as the variant, how does the amyloid nucleation score read?
Answer: -0.289 ± 0.17

Question: With EASNCFAIRHFENKFAVETLICFNLFLNSQEKLY as the variant, how does the amyloid nucleation score read?
Answer: -0.693 ± 0.12

Question: Which amyloid nucleation score does the source give for EASNCFAIRHFENKFAVETLICFNLFLNSQEKYY here?
Answer: -0.228 ± 0.17

Question: With EASNCFAIRHFENKFAVETLICFNLFQNSQEKHY as the variant, how does the amyloid nucleation score read?
Answer: 0.391 ± 0.15

Question: Which amyloid nucleation score does the source give for EASNCFAIRHFENKFAVETLICFNLFKNSQEKHY here?
Answer: -0.947 ± 0.16

Question: With EMSNCFAIRHFENKFAVETLICFNLFLNSQEKHY as the variant, how does the amyloid nucleation score read?
Answer: -1.1 ± 0.24

Question: With EKSNCFAIRHFENKFAVETLICFNLFLNSQEKHY as the variant, how does the amyloid nucleation score read?
Answer: -0.117 ± 0.23

Question: For EPSNCFAIRHFENKFAVETLICFNLFLNSQEKHY, which amyloid nucleation score is on record?
Answer: 0.0538 ± 0.21

Question: With EASICFAIRHFENKFAVETLICFNLFLNSQEKHY as the variant, how does the amyloid nucleation score read?
Answer: -3.04 ± 0.28

Question: With EASGCFAIRHFENKFAVETLICFNLFLNSQEKHY as the variant, how does the amyloid nucleation score read?
Answer: -2.24 ± 0.15

Question: For EASSCFAIRHFENKFAVETLICFNLFLNSQEKHY, which amyloid nucleation score is on record?
Answer: -0.879 ± 0.12

Question: With EAYNCFAIRHFENKFAVETLICFNLFLNSQEKHY as the variant, how does the amyloid nucleation score read?
Answer: 0.296 ± 0.25

Question: For EASNCFAIRHFENKFAVETLICFNLFLCSQEKHY, which amyloid nucleation score is on record?
Answer: 0.468 ± 0.14

Question: With EASNCFAIRHFENKFAVETVICFNLFLNSQEKHY as the variant, how does the amyloid nucleation score read?
Answer: -1.46 ± 0.12

Question: Which amyloid nucleation score does the source give for EASNCFAIRHFENKFAVETRICFNLFLNSQEKHY here?
Answer: -3.67 ± 0.24

Question: For EASNCFAIRHFENKFAVETNICFNLFLNSQEKHY, which amyloid nucleation score is on record?
Answer: -1.24 ± 0.19

Question: With EASNCFAIRHFENKFAVETPICFNLFLNSQEKHY as the variant, how does the amyloid nucleation score read?
Answer: 0.75 ± 0.16

Question: For EASNCFAIRHFENKFAVETLICFLLFLNSQEKHY, which amyloid nucleation score is on record?
Answer: -3.39 ± 0.23

Question: With EASNCFAIRHFENKFAVETLICFGLFLNSQEKHY as the variant, how does the amyloid nucleation score read?
Answer: -0.57 ± 0.096

Question: For EASNCFAIRHFENKFAVETLICFTLFLNSQEKHY, which amyloid nucleation score is on record?
Answer: -2.11 ± 0.21

Question: With EASNCFAIRHFENKFAVETLICFNLMLNSQEKHY as the variant, how does the amyloid nucleation score read?
Answer: -0.622 ± 0.18

Question: For EASNCMAIRHFENKFAVETLICFNLFLNSQEKHY, which amyloid nucleation score is on record?
Answer: -0.0809 ± 0.15

Question: For EASNCWAIRHFENKFAVETLICFNLFLNSQEKHY, which amyloid nucleation score is on record?
Answer: 0.168 ± 0.16

Question: Which amyloid nucleation score does the source give for EASNCFAIRHFENKFRVETLICFNLFLNSQEKHY here?
Answer: 0.372 ± 0.1

Question: For EASNCFAIRHFENKFQVETLICFNLFLNSQEKHY, which amyloid nucleation score is on record?
Answer: 0.708 ± 0.17

Question: Which amyloid nucleation score does the source give for EASNCFAIRHFENKFSVETLICFNLFLNSQEKHY here?
Answer: 0.414 ± 0.1

Question: With EASNCFAIRHFENKFAVETLICFNAFLNSQEKHY as the variant, how does the amyloid nucleation score read?
Answer: 0.9 ± 0.13

Question: For EASNCFAIRHFENKFAVETLICFNQFLNSQEKHY, which amyloid nucleation score is on record?
Answer: 0.382 ± 0.21

Question: With EASNCFAIRHFENKFAVETLICFNTFLNSQEKHY as the variant, how does the amyloid nucleation score read?
Answer: 0.368 ± 0.14

Question: Which amyloid nucleation score does the source give for EASNCFQIRHFENKFAVETLICFNLFLNSQEKHY here?
Answer: 0.436 ± 0.18
